Earlier results as cited in PMC10243098.
pKi: −log10 of the molar value.

Biological target: histone H4 N-terminal 20-mer peptide-CoA bisubstrate inhibitor 1-20 (Homo sapiens) (UniProt P62805)

HAT1, sequence (O14929 2-419): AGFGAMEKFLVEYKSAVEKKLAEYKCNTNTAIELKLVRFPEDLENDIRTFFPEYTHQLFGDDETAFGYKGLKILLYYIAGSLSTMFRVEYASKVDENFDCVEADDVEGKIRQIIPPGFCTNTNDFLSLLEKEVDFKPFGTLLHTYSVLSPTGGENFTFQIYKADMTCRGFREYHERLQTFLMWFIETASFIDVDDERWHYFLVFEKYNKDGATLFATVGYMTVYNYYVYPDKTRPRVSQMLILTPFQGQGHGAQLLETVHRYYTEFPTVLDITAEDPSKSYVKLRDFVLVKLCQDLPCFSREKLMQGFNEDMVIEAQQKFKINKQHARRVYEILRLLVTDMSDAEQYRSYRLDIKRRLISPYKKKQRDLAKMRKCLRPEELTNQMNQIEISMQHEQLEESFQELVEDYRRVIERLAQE

pKi: 9.00
Substance: HAT1 (from UniProt O14929)
